According to paper PMC4041322, “Differences in the intrinsic immunogenicity and allergenicity of Bet v 1 and related food allergens revealed by site-directed mutagenesis” (Allergy, 2013):

B1: Cor a 1 C4,82,160S (natural protein)
chain: GVFSYEDEATSVIPPARLFKSFVLDADNLIPKVAPQHFTSAENLEGNGGPGTIKKITFAEGNEFKYMKHKVEEIDHANFKYSYSIIEGGPLGHTLEKISYEIKMAAAPHGGGSILKITSKYHTKGNASINEEEIKAGKEKAAGLFKAVEAYLLAHPDAYS
B2: Cor a 1 C4,82,160S, L115K (natural protein)
chain: GVFSYEDEATSVIPPARLFKSFVLDADNLIPKVAPQHFTSAENLEGNGGPGTIKKITFAEGNEFKYMKHKVEEIDHANFKYSYSIIEGGPLGHTLEKISYEIKMAAAPHGGGSIKKITSKYHTKGNASINEEEIKAGKEKAAGLFKAVEAYLLAHPDAYS
B3: Mal d 1 C107S, I113K (natural protein)
chain: GVYTFENEFTSEIPPSRLFKAFVLDADNLIPKIAPQAIKQAEILEGNGGPGTIKKITFGEGSQYGYVKHRIDSIDEASYSYSYTLIEGDALTDTIEKISYETKLVASGSGSTKKSISHYHTKGNIEIKEEHVKAGKEKAHGLFKLIESYLKDHPDAYN
B4: Mal d 1 C107S (natural protein)
chain: GVYTFENEFTSEIPPSRLFKAFVLDADNLIPKIAPQAIKQAEILEGNGGPGTIKKITFGEGSQYGYVKHRIDSIDEASYSYSYTLIEGDALTDTIEKISYETKLVASGSGSTIKSISHYHTKGNIEIKEEHVKAGKEKAHGLFKLIESYLKDHPDAYN

Columns and labels:
[1] = SEC; high-performance size-exclusion chromatography (HPSEC) of the purified recombinant proteins; fractions of monomers, dimers, tri-/tetramers and high MW aggregates; details in the online Supporting Information
rCor a 1.0401 (hazelnut) = experiment: as above
rMal d 1.0108 (apple) = experiment: as above
[2] = target: the molecule itself; experiment: as above

Molecule	percent high MW aggregates [1]	percent monomers [2]	further results
Mal d 1 C107S	<0.5%	–	–
rCor a 1.0401	9%	–	–
rCor a 1.0401 (natural protein)	–	–	percent dimers (rCor a 1.0401 (hazelnut)): 28%; percent monomers (rCor a 1.0401 (hazelnut)): 45%; percent tri-/tetramers (rCor a 1.0401 (hazelnut)): 18%
rMal d 1.0108	2%	–	–
rMal d 1.0108 (natural protein)	–	–	percent dimers (rMal d 1.0108 (apple)): 34%; percent monomers (rMal d 1.0108 (apple)): 56%; percent tri-/tetramers (rMal d 1.0108 (apple)): 8%
B1	–	93%	–
B2	–	> 99%	–
B3	–	> 99%	–
B4	–	> 98%	–
